Laboratory results taken from patent US20230405046A1.
Changes are numbered by the printed parent chain. Values belong to the binder of their own block, whether it stands above or below them.

Target: HLA-A*01:01 presenting KRAS-Q61H 55-64 (…) (human)
Test: cell-based or functional assay

B1: TCRCD8-EL8-LM7 #1 (TCR)
TCR alpha: AQKITQTQPGMFVQEKEAVTLDCTYDTSDPSYGLFWYKQPSSGEMIFLIYQGSYDQQNATEGRYSLNFQKARKSANLVISASQLGDSAMYFCAMREGQDSSYKLIFGSGTRLLVRPDIQNPDPAVYQLRDS
TCR beta: MGTRLLCCVAFCLLGAGPVDSGVTQTPKHLITATGQRVTLRCSPRSGDLSVYWYQQSLDQGLQFLIQYYNGEERAKGNILERFSAQQFPDLHSELNLSSLELGDSALYFCASSVLGPNTEAFFGQGTRLTVVEDLNKVFPPEVAVFE
minimal recognized peptide concentration (functional avidity, IFNγ ELISPOT): 10 nM

B3: TCRCD8-EL8-LM7 #4 (TCR)
TCR alpha: AQKVTQAQTEISVVEKEDVTLDCVYETRDTTYYLFWYKQPPSGELVFLIRRNSFDEQNEISGRYSWNFQKSTSSFNFTITASQVVDSAVYFCALSNAGGTSYGKLTFGQGTILTVHPNIQNPDPAVYQLRDS
TCR beta: EAQVTQNPRYLITVTGKKLTVTCSQNMNHEYMSWYRQDPGLGLRQIYYSMNVEVTDKGDVPEGYKVSRKEKRNFPLILESPSPNQTSLYFCASSRRLPPPYGYTFGSGTRLTVVEDLNKVFPPEVAVFE
minimal recognized peptide concentration (functional avidity, IFNγ ELISPOT): 10 nM

Continued, values first:

minimal recognized peptide concentration (functional avidity, IFNγ ELISPOT): 100 nM
B2: TCRCD8-EL8-LM7 #8 (TCR)
TCR alpha: B1 TCR alpha with G97I, Q98R
TCR beta: B1 TCR beta with Y68H, V114P, L115A

minimal recognized peptide concentration (functional avidity, IFNγ ELISPOT): 10 nM
B4: TCRCD8-EL8-LM7 #7 (TCR)
TCR alpha: AQKVTQAQTEISVVEKEDVTLDCVYETRDTTYYLFWYKQPPSGELVFLIRRNSFDEQNEISGRYSWNFQKSTSSFNFTITASQVVDSAVYFCALSESSNTGKLIFGQGTTLQVKPDIQNPDPAVYQLRDS
TCR beta: B3 TCR beta with L97E
